Data: patent publication US20120251547A1 (Amgen, published 2012)

T1: chimera B
T1 construct: human IL-17RA extracellular domain with mouse Domain B; column head 75-96; also called Construct B
T1 IL-17RA extracellular domain with FLAG-polyHis tag: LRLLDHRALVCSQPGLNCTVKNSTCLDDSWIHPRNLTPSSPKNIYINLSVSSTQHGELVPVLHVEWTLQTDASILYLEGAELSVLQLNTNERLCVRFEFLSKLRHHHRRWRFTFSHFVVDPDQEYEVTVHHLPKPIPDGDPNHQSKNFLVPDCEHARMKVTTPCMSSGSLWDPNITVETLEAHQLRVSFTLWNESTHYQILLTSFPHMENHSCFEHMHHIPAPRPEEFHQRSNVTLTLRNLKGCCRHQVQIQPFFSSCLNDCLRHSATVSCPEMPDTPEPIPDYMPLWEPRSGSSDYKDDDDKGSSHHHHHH

T2: chimera H
T2 construct: human IL-17RA extracellular domain with mouse Domains B and E; also called Construct H
T2 IL-17RA extracellular domain with FLAG-polyHis tag: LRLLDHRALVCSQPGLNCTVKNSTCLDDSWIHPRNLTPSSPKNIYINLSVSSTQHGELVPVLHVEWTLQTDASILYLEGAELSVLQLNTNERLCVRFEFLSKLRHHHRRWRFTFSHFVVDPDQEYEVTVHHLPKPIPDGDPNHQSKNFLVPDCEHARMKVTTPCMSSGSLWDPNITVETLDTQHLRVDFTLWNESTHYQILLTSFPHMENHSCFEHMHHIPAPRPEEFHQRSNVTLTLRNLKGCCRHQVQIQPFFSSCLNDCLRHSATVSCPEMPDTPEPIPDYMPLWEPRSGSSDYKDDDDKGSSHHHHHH


What was measured:
[1] = biological target: human IL-17RA, full-length, on cells (human, UniProt Q96F46 33-866); assay: cell-based or functional assay
huIL-17RA-FLAG-polyHis [2] = biological target: T3, huIL-17RA-FLAG-polyHis (human, UniProt Q96F46 33-320); assay: binning; IL-17RA held by bead mAb A
T3 construct: also called IL-17RA-FLAG-pHis; wild-type IL-17RA
Procedure: (§1) The method employed the Bio-Plex Workstation and software (BioRad, Hercules, Calif.), as well as reagents from Luminex® Corp. (Austin, Tex.). […] The mouse-anti-human IgG coating was evaluated and the beads quantified by FACS. Each bead code was separately incubated with 10 ul of anti-IL-17RA antibody for 1 hour at room temperature and then washed. The beads were pooled and then dispensed to a 96-well filter plate (Millipore, Billerica, Mass., product #MSBVN1250). […] The PE-tagged monovalent antibody will detect the presence of the second mAb added to the well, but not the first mAb captured by the monovalent mouse-anti-human IgG antibody. Beads were resuspended in 120u1 PBSAT and at least 100 events/bead code were collected on the Bio-Plex workstation as per the manufacturer's recommended protocol.

huIL-17RA-FLAG-polyHis [3] = biological target: T3, huIL-17RA-FLAG-polyHis; assay: binning; IL-17RA held by bead mAb B
Procedure: as §1

huIL-17RA-FLAG-polyHis [4] = biological target: T3, huIL-17RA-FLAG-polyHis; assay: binning; IL-17RA held by bead mAb C
Procedure: as §1

huIL-17RA-FLAG-polyHis [5] = biological target: T3, huIL-17RA-FLAG-polyHis; assay: binning; IL-17RA held by bead mAb F
Procedure: as §1

huIL-17RA-FLAG-polyHis [6] = biological target: T3, huIL-17RA-FLAG-polyHis; assay: binning; IL-17RA held by bead mAb H
Procedure: as §1

huIL-17RA-FLAG-polyHis [7] = biological target: T3, huIL-17RA-FLAG-polyHis; assay: binning; IL-17RA held by bead mAb M
Procedure: (§2) The method employed the Bio-Plex Workstation and software (BioRad, Hercules, Calif.), as well as reagents from Luminex® Corp. (Austin, Tex.). The manufacturers' basic protocols were followed except where noted below (see www.bio-rad.com and www.luminexcorp.com for details). […] The mouse-anti-human IgG coating was evaluated and the beads quantified by FACS. Each bead code was separately incubated with 10 ul of anti-IL-17RA antibody for 1 hour at room temperature and then washed. The beads were pooled and then dispensed to a 96-well filter plate (Millipore, Billerica, Mass., product #MSBVN1250). […] The PE-tagged monovalent antibody will detect the presence of the second mAb added to the well, but not the first mAb captured by the monovalent mouse-anti-human IgG antibody. Beads were resuspended in 120u1 PBSAT and at least 100 events/bead code were collected on the Bio-Plex workstation as per the manufacturer's recommended protocol.

huIL-17RA-FLAG-polyHis [8] = biological target: T3, huIL-17RA-FLAG-polyHis; assay: binning; IL-17RA held by bead mAb P
Procedure: as §1

huIL-17RA-FLAG-polyHis [9] = biological target: T3, huIL-17RA-FLAG-polyHis; assay: binning; IL-17RA held by bead mAb I
Procedure: as §1

huIL-17RA-FLAG-polyHis [10] = biological target: T3, huIL-17RA-FLAG-polyHis; assay: binning; IL-17RA held by bead mAb J
Procedure: as §2

huIL-17RA-FLAG-polyHis [11] = biological target: T3, huIL-17RA-FLAG-polyHis; assay: binning; IL-17RA held by bead mAb K
Procedure: as §1

huIL-17RA-FLAG-polyHis [12] = biological target: T3, huIL-17RA-FLAG-polyHis; assay: binning; IL-17RA held by bead mAb L
Procedure: as §1

huIL-17RA-FLAG-polyHis [13] = biological target: T3, huIL-17RA-FLAG-polyHis; assay: binning; IL-17RA held by bead mAb Q
Procedure: as §1

huIL-17RA-FLAG-polyHis [14] = biological target: T3, huIL-17RA-FLAG-polyHis; assay: binning; IL-17RA held by bead mAb R
Procedure: as §1

chimera A = biological target: T4, chimera A; assay: Bio-Plex titration on His-captured chimera;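 note: binding of anti-IL-17RA antibodies (4-fold titration across about 5 logs, 1 h) to His-captured IL-17RA chimeras on multiplexed beads, MFI read as percent of maximal wild-type human IL-17RA signal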
T4 construct: human IL-17RA extracellular domain with mouse Domain A; column head aa 38-51; also called Construct A
Procedure: (§3) Twelve bead codes of pentaHis-coated beads (Qiagen, Valencia, Calif.; see wwwl.qiagen.com) were used to capture histidine-tagged protein. The 12 bead codes allowed the multiplexing of 11 chimeric and the wild type human IL-17RA.
(§4) The beads were washed as per the manufacturer's protocol and the 12 bead set was pooled and aliquoted into 2 or 3 columns of a 96-well filter plate (Millipore, Billerica, Mass., product #MSBVN1250) for duplicate or triplicate assay points, respectively. 100 ul anti-IL-17RA antibodies in 4-fold dilutions were added to the wells, incubated for 1 hour at room temperature, and washed. […] Beads were resuspended in 1% BSA, shaken for 3 minutes, and read on the Bio-Plex workstation. Antibody binding to IL-17RA chimeric protein was compared to antibody binding to the human IL-17RA wild-type from the same pool. A titration of antibody over approximately a 5 log scale was performed. Median Fluorescence Intensity (MFI) of chimeric proteins was graphed as a percent of maximum wild-type human IL-17RA signal.

chimera L = biological target: T5, chimera L; assay: Bio-Plex titration on His-captured chimera;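 note: binding of anti-IL-17RA antibodies (4-fold titration across about 5 logs, 1 h) to His-captured IL-17RA chimeras on multiplexed beads, MFI read as percent of maximal wild-type human IL-17RA signal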
T5 construct: human IL-17RA extracellular domain with mouse Domains B and F; B+F; also called Construct L
Procedure: as §3, §4

chimera B = biological target: T1, chimera B; assay: Bio-Plex titration on His-captured chimera;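 note: binding of anti-IL-17RA antibodies (4-fold titration across about 5 logs, 1 h) to His-captured IL-17RA chimeras on multiplexed beads, MFI read as percent of maximal wild-type human IL-17RA signal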
Procedure: as §3, §4

chimera C = biological target: T6, chimera C; assay: Bio-Plex titration on His-captured chimera;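 note: binding of anti-IL-17RA antibodies (4-fold titration across about 5 logs, 1 h) to His-captured IL-17RA chimeras on multiplexed beads, MFI read as percent of maximal wild-type human IL-17RA signal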
T6 construct: human IL-17RA extracellular domain with mouse Domain C; also called Construct C
Procedure: as §3, §4

chimera E = biological target: T7, chimera E; assay: Bio-Plex titration on His-captured chimera
T7 construct: human IL-17RA extracellular domain with mouse Domain E; also called Construct E
Procedure: as §3, §4

chimera G = biological target: T8, chimera G; assay: Bio-Plex titration on His-captured chimera
T8 construct: human IL-17RA extracellular domain with mouse Domains A and E; also called Construct G
Procedure: as §3, §4

chimera H = biological target: T2, chimera H; assay: Bio-Plex titration on His-captured chimera
Procedure: as §3, §4

chimera I = biological target: T9, chimera I; assay: Bio-Plex titration on His-captured chimera
T9 construct: human IL-17RA extracellular domain with mouse Domains C and E; also called Construct I
Procedure: as §3, §4

D152R IL-17RA mutant = D152R IL-17RA mutant (human, UniProt Q96F46 33-320); assay: Bio-Plex titration on His-captured D152R mutant
Procedure: Twelve bead codes of pentaHis-coated beads (Qiagen, Valencia, Calif.; see wwwl.qiagen.com) were used to capture histidine-tagged protein.
To prepare the beads, 100 ul of wild-type IL-17RA and IL-17RA arginine mutant supernatants from transient expression culture were bound to penta-His-coated beads overnight at 4° C. or 2 hours at room temperature with vigorous shaking. The beads were washed as per the manufacturer's protocol and the 12 bead set was pooled and aliquoted into 2 or 3 columns of a 96-well filter plate (Millipore, Bellerica, Mass., product #MSBVN1250) for duplicate or triplicate assay points, respectively. 100 ul anti-IL-17RA antibodies in 4-fold dilutions were added to the wells, incubated for 1 hour at room temperature, and washed. […] Beads were resuspended in 1% BSA, shaken for 3 minutes, and read on the Bio-Plex workstation. Antibody binding to IL-17RA arginine mutant protein was compared to antibody binding to the human IL-17RA wild-type from the same pool. A titration of antibody over approximately a 5 log scale was performed.

huIL-17RA-FLAG-polyHis [15] = biological target: T3, huIL-17RA-FLAG-polyHis; assay: Bio-Plex, His-tagged wild-type huIL-17RA on pentaHis beads, antibody titration, PE anti-human IgG Fc
Procedure: as §3, §4

Binder	normalized MFI (huIL-17RA-FLAG-polyHis [2])	normalized MFI (huIL-17RA-FLAG-polyHis [3])	normalized MFI (huIL-17RA-FLAG-polyHis [4])	normalized MFI (huIL-17RA-FLAG-polyHis [5])	normalized MFI (huIL-17RA-FLAG-polyHis [6])	normalized MFI (huIL-17RA-FLAG-polyHis [7])	normalized MFI (huIL-17RA-FLAG-polyHis [8])	normalized MFI (huIL-17RA-FLAG-polyHis [9])	normalized MFI (huIL-17RA-FLAG-polyHis [10])	normalized MFI (huIL-17RA-FLAG-polyHis [11])	normalized MFI (huIL-17RA-FLAG-polyHis [12])	normalized MFI (huIL-17RA-FLAG-polyHis [13])	normalized MFI (huIL-17RA-FLAG-polyHis [14])	EC50 (chimera A)	EC50 (chimera B)	EC50 (chimera C)	EC50 (chimera E)	EC50 (chimera G)	EC50 (chimera H)	EC50 (chimera I)	other results
AMH21/AML21 (antibody, IgG2, V domains shown, human mAb from IgG2 XenoMouse mice; also called AM-21; antibody Q) VH: EVQLVESGGGSVQPGGSLRLSCAASGFTFSSYSMNWVRQAPGKGLEWVSIISSRSSIIHYADSVKGRFTISRDNAKNSLYLQMNSLRDEDTAVYYCARPKVGGGMDVWGQGTTVTVSS VL: DIQMTQSPSSLSASVGDRVTITCRASQGISNYLAWYQQKPGKFPELLIYAASTLQSGVPSRFSGSGSGTDFTLTISSLQPEDVATYYCQKYNRAPFTFGPGTKVDIK	9530	1900	4770	2200	10200	44.5	2160	2.5	23	-181	-58	100	34	0.018 nM	0.017 nM	0.03 nM	0.026 nM	0.025 nM	0.025 nM	0.032 nM	IL-17A/HFF bioassay IC50, subclone 4 [1]: 2.3 nM; IL-17A/HFF bioassay IC50, subclone 5 [1]: 3.1 nM; IL-17A/HFF bioassay IC50, subclone 6 [1]: 3.3 nM; EC50 (chimera L): 0.025 nM; binding result (D152R IL-17RA mutant): no binding (tested: log [Ab] about 0.5 (about 3 nM)); EC50 (huIL-17RA-FLAG-polyHis [15]): 0.018 nM
AMH20/AML20 (antibody, IgG2, V domains shown, human mAb from IgG2 XenoMouse mice; also called AM-20; antibody R) VH: EVQLVESGGGLVQPGGSLRLSCAASGFTFSSYSMNWVRQAPGKGLEWVSFISARSSTIYYADSVKGRFTISRDNAKNSLYLQMNSLRDEDTAVYYCARPKVGGGMDVWGQGTTVTVSS VL: DIQMTQSPSSLSASVGDRVTITCRASQGISNYLAWYQQKPGKFPELLIYAASTLQSGVPSRFSGSGSGTDFTLTISSLQPEDVATYYCQKYNRAPFTFGPGTKVDIK	6800	1060	2990	1240	8300	24	1410	58	26	-29	15	60	25	0.023 nM	0.02 nM	0.04 nM	0.027 nM	0.027 nM	0.033 nM	0.042 nM	IL-17A/HFF bioassay IC50, subclone 7 [1]: 8.1 nM; IL-17A/HFF bioassay IC50, subclone 8 [1]: 6.6 nM; IL-17A/HFF bioassay IC50, subclone 9 [1]: 6.7 nM; EC50 (chimera L): 0.027 nM; binding result (D152R IL-17RA mutant): no binding (tested: log [Ab] about 0.5 (about 3 nM)); EC50 (huIL-17RA-FLAG-polyHis [15]): 0.022 nM
AMH18/AML18 (antibody, IgG2, V domains shown, human mAb from IgG2 XenoMouse mice; also called AM-18; antibody G) VH: QVQLVQSGAEVKKPGASVKVSCKASGYSFTDYYMHWVRQAPGQGLEWMGWMHPNSGGTDLAQRFQGRVTMTRDTSISTAYMELSRLRSDDTAVYYCARGGYCSTLSCSFYWYFDLWGRGTLVTVSS VL: not shown	-162	1300	354	304	4000	2380	4490	6890	2900	8970	3590	7850	5110	0.052 nM	0.063 nM	0.052 nM	0.067 nM	0.052 nM	0.088 nM	0.059 nM	IL-17A/HFF bioassay IC50, subclone 14 [1]: 0.44 nM; IL-17A/HFF bioassay IC50, subclone 15 [1]: 0.4 nM; IL-17A/HFF bioassay IC50, subclone 16 [1]: 0.17 nM; binding result (chimera L): no binding; EC50 (read off the curve) (D152R IL-17RA mutant): ~0.07 nM; EC50 (huIL-17RA-FLAG-polyHis [15]): 0.061 nM
